This is an account of results in US20080063717A1.

Assay [1] deals with human NKp30 receptor (human). Nature of the assay: cell-based or functional assay.
For another assay, the target named is NKp46 receptor (human) (UniProt O76036). Nature of the assay: cell-based or functional assay.
Chain of UniProt O76036 (O76036 22-304): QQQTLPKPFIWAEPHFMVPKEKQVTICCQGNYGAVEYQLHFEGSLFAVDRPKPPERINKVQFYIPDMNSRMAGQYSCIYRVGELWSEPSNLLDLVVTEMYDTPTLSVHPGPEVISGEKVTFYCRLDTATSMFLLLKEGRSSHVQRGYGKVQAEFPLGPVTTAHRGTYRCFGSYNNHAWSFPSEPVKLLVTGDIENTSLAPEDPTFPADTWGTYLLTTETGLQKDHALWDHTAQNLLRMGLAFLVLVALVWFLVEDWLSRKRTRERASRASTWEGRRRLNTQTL

Chain of human NKp30 receptor (human) (chain, as listed by the source limits assumed): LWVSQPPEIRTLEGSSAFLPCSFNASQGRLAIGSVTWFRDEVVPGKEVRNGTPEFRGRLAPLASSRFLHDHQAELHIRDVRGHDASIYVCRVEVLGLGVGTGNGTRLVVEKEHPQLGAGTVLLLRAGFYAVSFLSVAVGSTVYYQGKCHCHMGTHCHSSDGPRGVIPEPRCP

Turning to AZ20 (anti-NKp30) monoclonal antibody, in assay [1], the cells in the culture at day 6 that underwent more than 5 divisions (CFSE) is above 80%; the cells remaining with fluorescence intensity equivalent to resting cells (no division), CFSE, day 6 is 5%; the dose to obtain 50% of maximum effect (NK cell proliferation from PBMC, titration of antibody with IL-2 and IL-15, 3 donors) was below 0.1 µg/mL; the plateau of the antibody's effect on NK cell proliferation (titration with IL-2 and IL-15, 3 donors) turned out to be 1 µg/mL.

On to Bab281 (anti-NKp46) monoclonal antibody, for which the cells remaining with fluorescence intensity equivalent to resting cells (no division), CFSE, day 6 with NKp46 receptor (human) was found to be 11%.
